Measurements: the supplement of paper PMC11865577

Key:
Experiment in all cases: pull-down binding Z-score (relative to library population); higher = stronger binding
[1] = tested on: TO-3-N3 (biotin conjugate); details: RNA library: Library-2
In short: (§1)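 Biotin-conjugated small molecule (100 pmol) on streptavidin beads was incubated with 1 μg of heat-folded Cy5- or Cy3-end-labelled RNA library in phosphate/NaCl/KCl buffer at 25 °C for 60 min. Following three washes, RNA was eluted with hot SDS and hybridised at 55.5 °C for 20 h to a DNA barcode microarray. The binding value is a Z-score computed from the library mean and standard deviation, after subtraction of beads without compound and averaging of barcoded replicate probes with the highest and lowest excluded.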

[2] = tested on: G-clamp-N3 (biotin conjugate); details: RNA library: Library-1 (pre-miRNA loops + repeats)
In short: as §1

[3] = tested on: TO-3-N3-2 (biotin conjugate); details: RNA library: Library-2
In short: as §1

[4] = tested on: TO-N3-2 (biotin conjugate); details: RNA library: Library-2
In short: as §1

TO-N3 (biotin conjugate) = details: RNA library: Library-2
In short: as §1

Row | Sequence | pull-down binding Z-score [1] | pull-down binding Z-score [2] | pull-down binding Z-score [3] | pull-down binding Z-score [4] | pull-down binding Z-score (TO-N3 (biotin conjugate))
1 | GCGUCACGUGCACCCAAGUGACGC [hsa-mir-6786] | 0.576 | -0.196 | 0.171 | 0.796 | 0.688
2 | ACUACUAUAGGCCGCUGGGAAGCAGU [hsa-mir-130b] | 1.04 | 0.987 | 0.542 | 0.667 | 1.13
3 | GAUUUUUUAGAUUCUAAAGAAAC [hsa-mir-1255a] | -0.837 | -1.12 | -0.365 | -1.27 | -1.02
4 | GGCUGGGCAGGCGGAAAGAGGUCUGAACUGCCUCUGCC [hsa-mir-6791] | -0.139 | 0.578 | -0.0685 | 0.358 | -0.0487
5 | GAAGCUCCUAUAGCUCCUGUAGCUUC [hsa-mir-578] | 0.48 | -0.978 | 0.166 | 0.587 | 0.407
6 | UUUGGUAUUACUUUCAGUGGCAAA [hsa-mir-548j] | -0.416 | 0.937 | 0.0283 | -0.485 | -0.448
7 | CACGCAUUUGCUUUACUUGCAAUGAUUAUA [hsa-mir-300] | 0.485 | -0.374 | 0.215 | 0.472 | 0.583
8 | UGGAGUCAGUAUUGGUCUGGCCA [hsa-mir-4255] | -0.417 | 0.114 | 0.104 | 0.502 | -0.319
9 | CGAGCCGCUUCCUCACGGCUCG [hsa-mir-4665] | -0.622 | 0.651 | -0.853 | -0.871 | -1.04
10 | UUGUAAUAGUGUAGAAUGUUGGUUAAC [hsa-mir-591] | -0.133 | 0.797 | 0.537 | 0.44 | 0.358
11 | GUCUUGGGGUGGGGGAUCAAGAC [hsa-mir-642a] | 2.99 | 0.431 | 2.9 | 1.89 | 2.61
12 | CUCUGUAGUUUUCUUAUAGUG [hsa-mir-644a] | -0.635 | -0.255 | -0.532 | -0.669 | -0.566
13 | CUUUCUGUUGUCUGAGAGAAAAGAAAG [hsa-mir-520a] | -0.684 | 0.6 | -0.385 | -0.553 | -0.74
14 | CUCAGAGGGCUGAAGUGGUUGUGGGGAGGGGCUUCUGGG [hsa-mir-4296] | 4.7 | 1.39 | 4.91 | 4.01 | 4.83
15 | UAUUUUGUUAUUCUGGUCACAGAAUGACCUAGUA [hsa-mir-630] | 0.141 | -1.22 | -0.134 | -1.11 | -0.308
16 | UAUGCCUACAAAAUCCCUCCAGACUGGCAUA [hsa-mir-4666a] | -0.599 | -0.858 | -0.346 | -0.743 | -0.78
17 | GAAAUGUGUGGAAGAUGGCAUUUC [hsa-mir-4482] | -0.346 | 2.74 | -0.00894 | 0.278 | -0.302
18 | AUGGUUCCUAUUCUGAUCAAUAAACAUGGUUUGAGCCUAGUUACAAUGAUCUAAAAUUCACGGUCCAA [hsa-mir-548o] | -0.961 | -1.15 | -0.193 | -0.0344 | -0.587
19 | UAGGAGCUGUGCCUCCUGGCCUAUUCCUGUUCGUG [hsa-mir-8056] | -0.344 | 0.294 | -0.167 | 0.623 | 0.0941

Row | Sequence | pull-down binding Z-score [1] | pull-down binding Z-score [2] | pull-down binding Z-score [3] | pull-down binding Z-score [4] | pull-down binding Z-score (TO-N3 (biotin conjugate))
20 | GUGAGUUAGAAAAGCUCAAUUCAC [hsa-mir-4457] | -0.654 | -0.276 | -0.365 | -0.405 | -0.662
21 | GAAGCUGUGAAGCCACAGAUGGGCUUU [hsa-mir-30a] | -0.0778 | 0.763 | 0.0568 | 0.641 | 0.224
22 | CUGGGGGAAGGCUCCAGACCCCAGCCU [hsa-mir-4267] | 0.793 | -0.401 | 0.331 | 1.37 | 1.19
23 | CAUUCACAUAGACUAUAAUUGAAUG [hsa-mir-652] | -0.751 | 0.721 | -0.353 | -0.703 | -0.944
24 | GCAGGCCGUGAACUCGUCGAGCUGCGCGUGCGGCCGGUGCUCA [hsa-mir-1199] | 0.55 | 0.693 | 0.103 | 2.02 | 1.47
25 | GGGAGAGGGGCCCAGCUGACCCUCCUGUC [hsa-mir-6879] | 0.755 | -0.867 | 0.744 | 1.89 | 1.68
26 | AAAUGAGAGUUAGCCAGGAGCUUUGCAUACUCA [hsa-mir-6801] | -0.384 | -1.22 | -0.0024 | 0.66 | -0.00733
27 | AGAUCCCCUGUUAGAGACGGGCC [hsa-mir-6840] | 0.114 | -1.25 | 0.351 | 0.991 | 0.562
28 | AGGGGUCAUAUCUCUUCUCAGGGAAAGCAGGAGCCCUUCAGCAGGGUCAGGGCCCCU [hsa-mir-6891] | 0.705 | 1.5 | 0.263 | 0.317 | 0.761
29 | AUCAUCUCUCCCUUGGAU [hsa-mir-3683] | -0.626 | 1.39 | -0.257 | -0.446 | -0.733
30 | UCUUGAAUUUUUGCCAGUUCAAGA [hsa-mir-5197] | -0.956 | 0.24 | -0.517 | -1.38 | -1.33
31 | CUUCCUGAGCACGCUCAUGAUGAGCAAACUGAGCCUCUAAG [hsa-mir-3653] | 0.463 | -0.859 | 0.277 | 0.429 | 0.596
32 | UGUUUGUGUCUAAACUAUCAAACG [hsa-mir-122] | -0.183 | -0.679 | -0.158 | -0.625 | -0.332
33 | UUUGUCAUUUAAAAGUAAUGGCAAA [hsa-mir-548ae-2] | 0.207 | 0.815 | 0.00258 | -0.902 | -0.203
34 | GCCUGCGGGCAGGAAGCGGA [hsa-mir-3928] | 1.57 | -0.0318 | 1.34 | 2.23 | 1.87
35 | UUGAAUCACACACACAUUUCAA [hsa-mir-4803] | -0.208 | -0.451 | -0.154 | -0.644 | -0.366
36 | GUGUCCUUUCUUCUGAGAGCUGGACAC [hsa-mir-6500] | -0.375 | 0.00177 | -0.39 | -0.336 | -0.527
37 | GAGGGAUGAGUGCACUUCACCUGC [hsa-mir-4435-1_4435-2] | -0.191 | 0.0709 | 0.0965 | 0.859 | 0.375
38 | GGGGGUGGCCGGGGCUGACCCU [hsa-mir-939] | 2.48 | 0.0126 | 1.8 | 2.08 | 2.56

Row | Sequence | pull-down binding Z-score [1] | pull-down binding Z-score [2] | pull-down binding Z-score [3] | pull-down binding Z-score [4] | pull-down binding Z-score (TO-N3 (biotin conjugate))
39 | GCGGGGAACGAGGCCGUCGGCCAUUUUGUG [hsa-mir-632] | 1.2 | 1.04 | 0.912 | 1.58 | 1.59
40 | GUGGAGUCGGGUCAGACUUCAA [hsa-mir-378c] | -0.461 | -1.13 | -0.477 | 0.384 | -0.0868
41 | AGAACAGAUAUAUCCACAGUACACUUGGCUGUUCU [hsa-mir-4753] | -0.759 | 0.593 | -0.354 | -0.635 | -0.943
42 | GUUGUUGUGAGCAAUAGUAAGGAAGCAAU [hsa-mir-34a] | 0.276 | 0.984 | 0.501 | 0.486 | 0.423
43 | AGCGCGAAAGU [hsa-mir-1539] | -0.0926 | 0.0302 | 0.0743 | 0.55 | 0.054
44 | UUCUGUUGUCAGAAAGAAGAGAA [hsa-mir-1283-1] | 0.146 | 0.462 | -0.107 | -0.0355 | 0.0942
45 | AGGCCGACGAGCAGCGCAUCCUCUUACCCGGCUA [hsa-mir-138-2] | 0.181 | -1.48 | 0.171 | 1.95 | 1.11
46 | CUGUCCCCUGCCACUGGGUGACC [hsa-mir-7114] | 0.262 | -0.449 | 0.144 | 0.894 | 0.471
47 | UGGCGGCGGCGAGGACACCGCCGCU [hsa-mir-4469] | 1.53 | 0.412 | 0.747 | 0.629 | 1.4
48 | CAGAGGGGCUGGCAGUACUGCUCUG [hsa-mir-4649] | 0.999 | 2.75 | 0.258 | 1.22 | 1.08
49 | ACAGCGCCACGGAAGAGGACGCA [hsa-mir-941-4_941-5_941-2_941-3_941-1] | 0.0968 | -0.758 | -0.211 | 0.874 | 0.495
50 | CCCCGCGCGCGGACAGACACACGGACAAGUCCCGCCAGGGG [hsa-mir-4492] | -0.131 | -0.362 | -0.38 | 4.65 | 1.59
51 | GGAGAUCGUACC [hsa-mir-4430] | -0.109 | -0.504 | -0.372 | -0.15 | -0.107
52 | GAAGCACUGGUUAUGAUUUGCAUC [hsa-mir-3126] | -0.087 | -0.739 | 0.159 | 0.429 | 0.0904
53 | GCAGAUUCUCUCUCUC [hsa-mir-4279] | 0.105 | -1.39 | -0.0368 | 0.316 | 0.189
54 | GGAGUUGAUGCACAGUUAUCCAGCUCC [hsa-mir-337] | -0.577 | -0.406 | -0.326 | -0.0382 | -0.495
55 | GGUCAGGUGGUGCCCUCCUUCCAUGGGUAGAGCCAGAGAUGGUGGGUUCUGGCU [hsa-mir-6131] | 0.869 | 0.859 | 0.142 | 2.25 | 1.16
56 | CAAGGAAGAGUCACAGUCUCUUCCUUG [hsa-mir-659] | -0.474 | -0.00418 | -0.285 | -0.539 | -0.699
